Molecular target: the molecule itself
Assay: crystal structure; OprN-wt crystals and OprN-Xe crystals (OprN-wt crystals under 2 MPa xenon), space group I4, T = 100 K; grown at 18°C in 100 mM sodium acetate pH 5.4, 0.8–1.1 M sodium formate, 9–11% PEG 4000; protein in 0.9% β-OG

B1: OprN, the outer membrane channel of the MexEF efflux pump from Pseudomonas aeruginosa (natural protein)
chain: CTVGPDYRTPDTAAAKIDATASKPYDRSRFESLWWKQFDDPTLNQLVEQSLSGNRDLRVAFARLRAARALRDDVANDRFPVVTSRASADIGKGQQPGVTEDRVNSERYDLGLDSAWELDLFGRIRRQLESSDALSEAAEADLQQLQVSLIAELVDAYGQLRGAQLREKIALSNLENQKESRQLTEQLRDAGVGAELDVLRADARLAATAASVPQLQAEAERARHRIATLLGQRPEELTVDLSPRDLPAITKALPIGDPGELLRRRPDIRAAERRLAASTADVGVATADLFPRVSLSGFLGFTAGRGSQIGSSAARAWSVGPSISWAAFDLGSVRARLRGAKADADAALASYEQQVLLALEESANAFSDYGKRQERLVSLVRQSEASRAAAQQAAIRYREGTTDFLVLLDAEREQLSAEDAQAQAEVELYRGIVAIYRSLGGGWQPSA
modifications: palmitoylation at the N-terminus Cys residue (dual acylation observed at the same cysteine)
notes: OprN, outer membrane factor of the MexEF-OprN efflux pump, Pseudomonas aeruginosa; the oprN gene was cloned; the chain in the crystal begins at the acylated Cys; 1341 amino acids built in the trimer; Homotrimer in the crystal (chains A, B, C); also called OprN-wt; OprN-Xe; source: C43-ΔacrB strain, pBAD-33, purified from the outer membrane (DDM, β-OG; Ni-NTA, Superose 6 SEC); not shown: His6, …
  stoichiometry N: 3

— article PMC5590881, “Xenon for tunnelling analysis of the efflux pump component OprN” (PLoS ONE, 2017)
